How the values were obtained:
human CD20 [1] = target: T1, human CD20 (human, UniProt P11836 1-297); assay: ELISA, reference veltuzumab
T1 construct: whole, on cells
T1 sequence (looked up): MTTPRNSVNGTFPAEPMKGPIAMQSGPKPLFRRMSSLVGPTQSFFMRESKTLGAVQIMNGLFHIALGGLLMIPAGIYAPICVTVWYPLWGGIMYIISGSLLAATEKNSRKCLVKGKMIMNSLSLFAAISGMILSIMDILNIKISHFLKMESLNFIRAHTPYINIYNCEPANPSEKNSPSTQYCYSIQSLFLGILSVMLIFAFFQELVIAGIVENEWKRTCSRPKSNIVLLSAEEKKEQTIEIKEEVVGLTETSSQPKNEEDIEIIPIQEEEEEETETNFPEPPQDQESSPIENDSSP

human CD20 [2] = target: T1, human CD20; assay: flow cytometry on live NHL cells, reference veltuzumab

B1: 20-(20)-(20) (antibody)
heavy 1: not shown
heavy 2: not shown
light: DIQLTQSPSSLSASVGDRVTMTCRASSSVSYIHWFQQKPGKAPKPWIYATSNLASGVPVRFSGSGSGTDYTFTISSLQPEDIATYYCQQWTSNPPTFGGGTKLEIKRTVAAPSVFIFPPSDEQLKSGTASVVCLLNNFYPREAKVQWKVDNALQSGNSQESVTEQDSKDSTYSLSSTLTLSKADYEKHKVYACEVTHQGLSSPVTKSFNRGEC
modifications: DNL complex locked by disulfide bridges between the cysteines of AD2 and DDD2. Stoichiometry: 2 IgG-AD2 heavy chains, 4 Fd-DDD2 chains, 6 kappa chains. Each unique chain is listed once.
notes: One Fc and 6 anti-CD20 Fabs; also called Hex-hA20; HexAb of veltuzumab
- fold higher binding avidity compared to veltuzumab (human CD20 [1]): 3 fold
- fold slower off-rate compared to veltuzumab (human CD20 [2]): 3 fold

From patent US20120237442A1 (published 2012)
